From patent publication US9120851B2, “Human antibodies to human angiopoietin-like protein 4” (Regeneron Pharmaceuticals, Inc., priority 2009, dated 2015) come the findings set out here.

The subject of data set [1] is humanized ANGPTL4 mice. The data set can be described thus: Serum TG, H4H268P2 and fenofibrate alone or in combination. It is filed as in vivo, mouse. How it is done:
The effects of the anti-ANGPTL4 antibody H4H268P2 and TG-reducing drug fenofibrate, each alone or in combination, on serum TG levels were evaluated in humanized ANGPTL4 mice. The mice were pre-bled 7 days before the experiment after 4 hours of fasting and put into 4 groups of six mice each. Groups 2 and 4 were administered with H4H268P2 at 10 mg/kg by subcutaneous injection on day 0 and groups 1 (control group) and 2 were placed on regular chow diet. Groups 3 and 4 received chow diet supplemented with 0.05% (w/w) of fenofibrate (the dosage level was determined experimentally in a pilot study). Serum was collected from a terminal bleed on day 7 after H4H268P2 and/or fenofibrate administration (after 4 hours of fasting) and analyzed by ADVIA® 1800 Chemistry System (Siemens).

Data set [2] has as its system C57BL/6 mice. The data set can be described thus: In vivo effect of hANGPTL4-mFc on plasma lipid levels. Set-up: species or system mouse. How it is done:
hANGPTL4 was administered intravenously to C57BL/6 mice to determine the biological effect of hANGPTL4 on plasma lipid levels. Briefly, C57BL/6 mice were put into four groups of five animals and each group was administered with different amount of hANGPTL4-mFc protein (SEQ ID NO:480): 25 μg, 50 μg, 100 μg and 300 μg, per mouse. A control group received injections of PBS. hANGPTL4-mFc protein and PBS were administered by intravenous injection (i.v.) via tail vein. Mice were bled at 15 min, 30 min, 60 min and 120 min after delivery of hANGPTL4-mFc or PBS and plasma lipid levels were determined by ADVIA® 1650 Chemistry System (Siemens). Measurements of triglycerides, total cholesterol, low density lipoprotein (LDL), nonesterified fatty acids (NEFA-C) and high density lipoprotein (HDL) were determined for each dose group. […] Thus, the 25 μg dose of hANGPTL4-mFc was selected as a possible minimum dosage for analysis of inhibition of ANGPTL4-induced increase in serum triglyceride levels by selected anti-hANGPTL4 antibodies as described below.

In data set [3] the target is T1, hANGPTL4(26-148)-mFc (Homo sapiens, UniProt Q9BY76).
T1 construct: amino acid residues 26-148 of human ANGPTL4 fused in-line to mouse IgG2a (hANGPTL4-mFc)
As to the kind of experiment: BIACORE, full mAb or Fab over anti-mFc captured hANGPTL4(26-148)-mFc. It is filed as binding. How it is done: (§1) Briefly, various concentrations (3.125 nM-100 nM) of anti-hANGPTL4 antibodies (i.e., H1H268 Fab, entire H1H268 mAb, H1H284 Fab, and entire H1H284 mAb) were injected over a low density anti-mFc captured hANGPTL4(26-148)-mFc (˜68±4 RU) surface, or the surface of amino-coupled hANGPTL4(26-406)-His (R&D Systems) (450 RU) or amino-coupled cynomolgus monkey N-terminal region (amino acid residues 1-130 of SEQ ID NO:490) expressed with an C-terminal hexa-histidine tag (MfANGPTL4(1-130)-His) (1,028 RU). Kinetic analysis was performed to measure ka and kd, and KD values and half-life of antigen/antibody complex dissociation were calculated. The results are shown in Table 4 (H1H268P) and Table 5 (H1H284P).

Data set [4] addresses T2, hANGPTL4(26-406)-His (Homo sapiens, UniProt Q9BY76).
T2 construct: purchased R&D Systems
T2 sequence (Q9BY76 26-406): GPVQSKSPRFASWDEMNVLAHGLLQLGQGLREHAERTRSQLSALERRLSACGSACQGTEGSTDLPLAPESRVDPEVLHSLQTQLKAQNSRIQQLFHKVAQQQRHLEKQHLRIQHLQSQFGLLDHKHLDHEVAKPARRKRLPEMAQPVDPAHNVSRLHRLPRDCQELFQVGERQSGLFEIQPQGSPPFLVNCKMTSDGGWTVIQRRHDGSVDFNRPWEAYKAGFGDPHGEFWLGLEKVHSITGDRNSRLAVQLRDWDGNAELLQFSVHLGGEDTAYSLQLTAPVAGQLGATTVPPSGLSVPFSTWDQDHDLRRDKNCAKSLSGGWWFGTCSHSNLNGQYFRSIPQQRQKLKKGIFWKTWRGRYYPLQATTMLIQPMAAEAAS
The data set can be described thus: BIACORE, full mAb or Fab over amino-coupled hANGPTL4(26-406)-His. The class given is binding. The settings on record: for RU bound at 50 nM mAb or Fab: amino-coupled 450 RU. The procedure: as §1

For data set [5], the system named is MfANGPTL4(1-130)-His. The data set can be described thus: BIACORE, full mAb or Fab over amino-coupled MfANGPTL4(1-130)-His. The settings on record: for Response bound at 50 nM mAb or Fab: amino-coupled 1,028 RU. The class given is binding, cynomolgus monkey. How it is done: as §1
Background: SPR reads the build-up and loss of mass on a sensor chip optically.

The target of data set [6] is T1, hANGPTL4(26-148)-mFc. As to the kind of experiment: BIACORE, full mAb or Fab over anti-mFc captured hANGPTL4(26-148)-mFc. It is filed as binding. The source holds these as a separate data set.
Where [7] appears, read: pH 5.75, 25° C., antigen captured 27 ± 0.6 RU.
[8] abbreviates: pH 7.2, 25° C., antigen captured 35 ± 1.9 RU.

MfANGPTL4(1-130)-His, sequence (as listed by the source): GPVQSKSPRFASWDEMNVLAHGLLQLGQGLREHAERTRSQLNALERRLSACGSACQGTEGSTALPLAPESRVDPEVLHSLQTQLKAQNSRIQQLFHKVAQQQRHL

As for `CC(C)OC(=O)C(C)(C)Oc1ccc(C(=O)c2ccc(Cl)cc2)cc1` [fenofibrate], the “TG levels reduced (mean) compared to control group on chow diet” value in data set [1] (day 7, H4H268P2 10 mg/kg s.c. day 0, fenofibrate 0.05% (w/w) in chow) was around 25%. Also, the “liver enlargement (liver weight/body weight) compared to control chow diet” value in data set [1] (mice that consumed fenofibrate for 7 days (groups 3 and 4)) was 1.8 times.

B1: hANGPTL4(26-148)-mFc: amino acid residues 26-148 of human ANGPTL4 fused in-line to mouse IgG2a (SEQ ID NO:480) (protein)
chain: GPVQSKSPRFASWDEMNVLAHGLLQLGQGLREHAERTRSQLSALERRLSACGSACQGTEGSTDLPLAPESRVDPEVLHSLQTQLKAQNSRIQQLFHKVAQQQRHLEKQHLRIQHLQSQFGLLDPGSLEFALERNSGEPRGPTIKPCPPCKCPAPNLLGGPSVFIFPPKIKDVLMISLSPIVTCVVVDVSEDDPDVQISWFVNNVEVHTAQTQTHREDYNSTLRVVSALPIQHQDWMSGKEFKCKVNNKDLPAPIERTISKPKGSVRAPQVYVLPPPEEEMTKKQVTLTCMVTDFMPEDIYVEWTNNGKTELNYKNTEPVLDSDGSYFMYSKLRVEKKNWVERNSYSCSVVHEGLHNHHTTKSFSRTPGK
With B1, the “increase of circulating triglycerides as compared to control mice (PBS)” value in data set [2] (25 μg/mouse i.v., 30 minutes post injection) was “greater than two-fold”. Moreover, the “total cholesterol, LDL, NEFA-C and HDL across dose groups” value in data set [2] (25, 50, 100, 300 μg per mouse i.v., each time point post-injection) is listed as “not significantly different”.

B2: H1H268P Fab: Fab fragment of H1H268P prepared by papain digestion (antibody, V domains shown)
VH: QVQLQESGAGLLKPSETLSLTCTVYGGSFSIHHWTWIRHPPGKGLEWIGEINHRGSTNYNPSLKSRVTISIDTSKNQFSLKLSAVTAADTAVYYCARGLRFLDWLSSYFDYWGQGTLVTVSS
VL: DIQMTQSPSSLSASVGDRVTITCRASQGISDYLAWYQQKPGKVPNLLIYAASALQSGVPSRFSGSGSGTDFTLTISSLQPEDVATYYCQNYNTAPLTFGGGTKVEIK
For the molecule B2, the ka came to 174000 M⁻¹ s⁻¹ in data set [3] (pH 5.75, 25° C.); 300000 M⁻¹ s⁻¹ in data set [3] (pH 7.2, 25° C.); 444000 M⁻¹ s⁻¹ in data set [4] (pH 5.75, 25° C.); 726000 M⁻¹ s⁻¹ in data set [4] (pH 7.2, 25° C.); 312000 M⁻¹ s⁻¹ in data set [5] (pH 5.75, 25° C.); 267000 M⁻¹ s⁻¹ in data set [5] (pH 7.2, 25° C.). For the same molecule, the kd was 0.00304 s⁻¹ in data set [3] (pH 5.75, 25° C.); 0.000601 s⁻¹ in data set [3] (pH 7.2, 25° C.); 0.00657 s⁻¹ in data set [4] (pH 5.75, 25° C.); 0.0118 s⁻¹ in data set [4] (pH 7.2, 25° C.); 0.00432 s⁻¹ in data set [5] (pH 5.75, 25° C.); 0.00171 s⁻¹ in data set [5] (pH 7.2, 25° C.). Also, the “RU bound at 50 nM mAb or Fab” value in data set [4] (pH 5.75, 25° C.) came out at 10; in data set [4] (pH 7.2, 25° C.) it was 13. For the same molecule, the “Response bound at 50 nM mAb or Fab” value in data set [5] (pH 5.75, 25° C.) came out at 178; in data set [5] (pH 7.2, 25° C.), 167. Also, the results for the “Response bound at 50 nM mAb or Fab (RU)” value in data set [6] (setting [7]) and in data set [6] (setting [8]) were 20 and 10, respectively.

B3: H1H284P Fab: Fab fragment of H1H284P prepared by papain digestion (antibody, V domains shown)
VH: QVQLVESGGGVVQPGRSLRLSCAASGFTFSSYGMHWVRQAPGKGLEWMAVISFDGGNKNNADSVKGRFTISRDNSKNTLYLQMNSLRAEDTAVYYCAKEGDRSGHPYFYYYGLDVWGQGTTVTVS
VL: DIQLTQSPSFLSASVGDRVTITCWASQGISSYLAWYQQKPGKAPKLLIYAASTLQSGVPSRFSGSGSETEFTLTISSLQPEDFATYYCQQLHSYPLTFGGGTKVEIK
With B3, the ka in data set [3] (pH 5.75, 25° C.) was found to be 472000 M⁻¹ s⁻¹; in data set [3] (pH 7.2, 25° C.), 245000 M⁻¹ s⁻¹; in data set [4] (pH 5.75, 25° C.), 1.21e+06 M⁻¹ s⁻¹; in data set [4] (pH 7.2, 25° C.) it was 1.11e+06 M⁻¹ s⁻¹; in data set [5] (pH 5.75, 25° C.), 724000 M⁻¹ s⁻¹; in data set [5] (pH 7.2, 25° C.), 310000 M⁻¹ s⁻¹. For the same molecule, the kd came to 0.0016 s⁻¹ in data set [3] (pH 5.75, 25° C.); 0.000202 s⁻¹ in data set [3] (pH 7.2, 25° C.); 0.00173 s⁻¹ in data set [4] (pH 5.75, 25° C.); 0.000344 s⁻¹ in data set [4] (pH 7.2, 25° C.); 0.00619 s⁻¹ in data set [5] (pH 5.75, 25° C.); 0.00313 s⁻¹ in data set [5] (pH 7.2, 25° C.). Further, the “RU bound at 50 nM mAb or Fab” value in data set [4] (pH 5.75, 25° C.) was determined as 33; in data set [4] (pH 7.2, 25° C.) it was 32. The “Response bound at 50 nM mAb or Fab” value stood at 255 in data set [5] (pH 5.75, 25° C.) and 214 in data set [5] (pH 7.2, 25° C.). The “Response bound at 50 nM mAb or Fab (RU)” value in data set [6] (setting [7]) is 56; in data set [6] (setting [8]), 29.
